According to patent US20160177336A1 (EIDGENOESSISCHE TECHNISCHE HOCHSCHULE ZURICH, published 2016):

Biological target: T1, Itc1p (yeast, UniProt P53125 1-1264)
T1 construct: Co-expressed with Isw2p in insect cells from MultiBac baculovirus; also called 145 kDa Itc1p; subunit of the yeast Isw2 chromatin remodelling complex
T1 sequence (looked up): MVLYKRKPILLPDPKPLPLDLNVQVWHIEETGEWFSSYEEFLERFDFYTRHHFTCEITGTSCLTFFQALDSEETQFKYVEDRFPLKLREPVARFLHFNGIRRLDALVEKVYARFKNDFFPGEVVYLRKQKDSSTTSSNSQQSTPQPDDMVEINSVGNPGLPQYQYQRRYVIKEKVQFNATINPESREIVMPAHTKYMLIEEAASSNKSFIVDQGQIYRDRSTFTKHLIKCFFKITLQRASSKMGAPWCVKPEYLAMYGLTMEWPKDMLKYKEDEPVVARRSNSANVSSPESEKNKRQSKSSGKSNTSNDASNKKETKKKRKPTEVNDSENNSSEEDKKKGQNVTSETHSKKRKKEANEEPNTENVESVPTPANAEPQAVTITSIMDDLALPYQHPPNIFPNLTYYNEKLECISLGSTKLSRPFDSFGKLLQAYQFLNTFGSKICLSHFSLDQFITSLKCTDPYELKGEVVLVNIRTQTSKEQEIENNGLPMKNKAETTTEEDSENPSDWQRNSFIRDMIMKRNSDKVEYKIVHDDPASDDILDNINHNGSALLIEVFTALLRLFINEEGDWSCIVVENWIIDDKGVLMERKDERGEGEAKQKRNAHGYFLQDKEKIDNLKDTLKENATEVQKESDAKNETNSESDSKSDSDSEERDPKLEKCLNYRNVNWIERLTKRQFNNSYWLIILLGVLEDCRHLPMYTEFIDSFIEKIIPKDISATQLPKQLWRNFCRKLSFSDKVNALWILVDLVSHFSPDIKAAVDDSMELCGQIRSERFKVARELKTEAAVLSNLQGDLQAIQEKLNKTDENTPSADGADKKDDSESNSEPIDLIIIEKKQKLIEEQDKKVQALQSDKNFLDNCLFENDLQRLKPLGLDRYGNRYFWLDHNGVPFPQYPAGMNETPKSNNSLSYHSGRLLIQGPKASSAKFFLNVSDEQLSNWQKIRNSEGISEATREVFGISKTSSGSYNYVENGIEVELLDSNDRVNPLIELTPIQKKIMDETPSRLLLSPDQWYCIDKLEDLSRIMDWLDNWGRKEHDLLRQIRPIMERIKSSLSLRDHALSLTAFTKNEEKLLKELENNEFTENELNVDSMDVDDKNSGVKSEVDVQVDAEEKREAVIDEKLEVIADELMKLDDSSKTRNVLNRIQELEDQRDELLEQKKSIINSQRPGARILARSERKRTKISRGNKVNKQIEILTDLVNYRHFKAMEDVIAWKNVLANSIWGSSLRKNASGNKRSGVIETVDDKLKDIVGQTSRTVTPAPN
Test: co-expression in insect cells from MultiBac baculovirus; complex purified (FIG. 8)
Source text: In a test experiment the yeast Isw2 chromatin remodelling complex consisting of the 130 kDa Isw2p and the 145 kDa Itc1p proteins was expressed. One version of MultiBac was created with both proteins integrated at the attTn7 site, and a second version with Isw2p integrated at the attTn7 site and Itc1p inserted at the LoxP site. […] For further detail see FIG. 8.

B1: Isw2p (other, yeast, UniProt Q08773 1-1120, looked up)
chain: MTTQQEEQRSDTKNSKSESPSEVLVDTLDSKSNGSSDDDNIGQSEELSDKEIYTVEDRPPEYWAQRKKKFVLDVDPKYAKQKDKSDTYKRFKYLLGVTDLFRHFIGIKAKHDKNIQKLLKQLDSDANKLSKSHSTVSSSSRHHRKTEKEEDAELMADEEEEIVDTYQEDIFVSESPSFVKSGKLRDYQVQGLNWLISLHENKLSGILADEMGLGKTLQTISFLGYLRYVKQIEGPFLIIVPKSTLDNWRREFLKWTPNVNVLVLHGDKDTRADIVRNIILEARFDVLITSYEMVIREKNALKRLAWQYIVIDEAHRIKNEQSALSQIIRLFYSKNRLLITGTPLQNNLHELWALLNFLLPDIFGDSELFDEWFEQNNSEQDQEIVIQQLHSVLNPFLLRRVKADVEKSLLPKIETNVYVGMTDMQIQWYKSLLEKDIDAVNGAVGKREGKTRLLNIVMQLRKCCNHPYLFEGAEPGPPYTTDEHLIFNSGKMIILDKLLKRLKEKGSRVLIFSQMSRLLDILEDYCYFRDFEYCRIDGSTSHEERIEAIDEYNKPNSEKFVFLLTTRAGGLGINLVTADTVILFDSDWNPQADLQAMDRAHRIGQKKQVHVYRFVTENAIEEKVIERAAQKLRLDQLVIQQGTGKKTASLGNSKDDLLDMIQFGAKNMFEKKASKVTVDADIDDILKKGEQKTQELNAKYQSLGLDDLQKFNGIENQSAYEWNGKSFQKKSNDKVVEWINPSRRERRREQTTYSVDDYYKEIIGGGSKSASKQTPQPKAPRAPKVIHGQDFQFFPKELDALQEKEQLYFKKKVNYKVTSYDITGDIRNEGSDAEEEEGEYKNAANTEGHKGHEELKRRIEEEQEKINSAPDFTQEDELRKQELISKAFTNWNKRDFMAFINACAKYGRDDMENIKKSIDSKTPEEVEVYAKIFWERLKEINGWEKYLHNVELGEKKNEKLKFQETLLRQKIEQCKHPLHELIIQYPPNNARRTYNTLEDKFLLLAVNKYGLRADKLYEKLKQEIMMSDLFTFDWFIKTRTVHELSKRVHTLLTLIVREYEQPDANKKKRSRTSATREDTPLSQNESTRASTVPNLPTTMVTNQKDTNDHVDKRTKIDQEA
notes: Co-expressed with Itc1p in insect cells from MultiBac baculovirus; also called 130 kDa Isw2p; subunit of the yeast Isw2 chromatin remodelling complex
B1: binds.
